Like-named read-outs stand apart in the source and are kept apart here.
Format: in vivo
Settings: for Edema / Fatigue / Fever / Infusion-related reaction / Musculoskeletal pain / Others (Constitutional) / Weight decreased: Constitutional; for Constipation / Decreased appetite / Diarrhea / Gastritis/GI bleed / Nausea / Others (Gastrointestinal) / Stomatitis / Vomiting: Gastrointestinal; for Any adverse event: worst toxicity grade; for ALT increased / AST increased / Abdominal pain / Bilirubin raised / GGT increased: Hepatic; for Dermatitis / Hepatitis / Others immune-related: Immune-related; for Amylase increased / Anemia / Hypercreatinine / Hyperglycemia / Hypokalemia / Hyponatremia / Hypothyroidism / Leukopenia / Lipase increased / Neutropenia / Thrombocytopenia: Laboratory; for Dry skin / Others (Skin) / Pruritus / Rash, acneiform / Rash, maculopapular / Rash, urticarial: Skin
Method: All patients underwent a single treatment of conventional TACE within 28 days of study enrolment. Conventional TACE was performed by supra-selective cannulation of all the branches supplying the tumor. The emulsion was prepared by mixing iodised oil with cisplatin (1 mg/mL) in a 1:1 ratio. A maximum of 60 mL of emulsion was injected. Preparation of the emulsion was followed by embolisation with gelfoam (gelatin granules) pellets of 1 mm diameter mixed with 40 mg of gentamicin. At 28 days (plus or minus 3 days) after the completion of TACE, stereotactic body radiotherapy was delivered to all lesions. Patients were immobilised via a vacuum foam bag (Vac-Lok™; MEDTEC, IA, USA) and active breathing control to reduce liver motion. Imaging was performed on the inhale breath-hold contrast CT. Gross tumor volume was defined as a tumor focus that was visualised by contrast imaging. The clinical target volume was defined as gross tumor volume with expansion to include the area stained with iodised oil. The individualised planning target volume margins were formulated to compensate for respiratory motion and setup errors. Cone beam CT was acquired on board before each treatment. A radiation dose of 27.5-40.0 Gy in five fractions delivered daily was allowed per protocol. The prescription isodose encompassed 95% of the planning target volume. The final dose was determined such that a maximum tumoricidal dose could be delivered to tumors while respecting the tolerance dose of the organ at risk (Table 3). The radiotherapy toxicity was assessed by CTCAE; version 4.01.
All patients underwent baseline contrast-enhanced MRI of the liver and CT of the thorax. Treatment response evaluation was assessed with MRI after cycle 4, cycle 8, and cycle 12 of avelumab and every 12 weeks thereafter (plus or minus 7 days). Radiological imaging was reported using the modified Response Evaluation Criteria in Solid Tumors (mRECIST). A CT of the thorax was done every 26 weeks or at the time of radiological or clinical evidence of disease progression according to mRECIST criteria. All patients were discussed in a multidisciplinary team board meeting of surgeons specializing in liver transplantation and liver surgery, clinical oncologists, interventional radiologists, and diagnostic radiologists. This meeting was held once every 2 weeks to decide resectability and treatment failure. All patients underwent complete tumor staging to exclude distant metastasis before surgery. A board-certified radiologist conducted an independent blinded review in addition to the investigator review. Safety assessments were documented throughout the treatment period. Adverse events were graded according to the US National Cancer Institute Common Terminology Criteria for Adverse Events (CTCAE; version 4.01). The frequency, duration, and severity of adverse events were recorded.
The primary endpoint was the percentage of patients deemed to be amenable to curative treatment after conversion therapy. Amenability for curative treatment was fulfilled when one of the following criteria was met: either a sustained complete response or sustained partial response achieved for at least 2 months and if curative treatment could be performed (based on investigator's review). […] Post-hoc analyses included radiological response according to immune RECIST, correlation of clinical outcomes with BCLC stage, albumin-bilirubin score, radiological assessment criteria, biomarkers, and median time to treatment response.

## avelumab
Grade 1-2
  Edema: 0 (0%) number of patients (%)
  Fatigue: 9 (27%) number of patients (%)
  Fever: 1 (3%) number of patients (%)
  Infusion-related reaction: 7 (21%) number of patients (%)
  Musculoskeletal pain: 0 (0%) number of patients (%)
  Others (Constitutional): 9 (27%) number of patients (%)
  Weight decreased: 7 (21%) number of patients (%)
  Constipation: 2 (6%) number of patients (%)
  Decreased appetite: 4 (12%) number of patients (%)
  Diarrhea: 4 (12%) number of patients (%)
  Gastritis/GI bleed: 0 (0%) number of patients (%)
  Nausea: 2 (6%) number of patients (%)
  Others (Gastrointestinal): 3 (9%) number of patients (%)
  Stomatitis: 0 (0%) number of patients (%)
  Vomiting: 1 (3%) number of patients (%)
  Adverse event, Lead to discontinuation: 0 (0%) number of patients (%)
  Any adverse event: 27 (82%) number of patients (%)
  ALT increased: 7 (21%) number of patients (%)
  AST increased: 6 (18%) number of patients (%)
  Abdominal pain: 1 (3%) number of patients (%)
  Bilirubin raised: 7 (21%) number of patients (%)
  GGT increased: 2 (6%) number of patients (%)
  Dermatitis: 2 (6%) number of patients (%)
  Hepatitis: 2 (6%) number of patients (%)
  Others immune-related: 5 (15%) number of patients (%)
  Amylase increased: 0 (0%) number of patients (%)
  Anemia: 5 (15%) number of patients (%)
  Hypercreatinine: 3 (9%) number of patients (%)
  Hyperglycemia: 1 (3%) number of patients (%)
  Hypokalemia: 6 (18%) number of patients (%)
  Hyponatremia: 4 (12%) number of patients (%)
  Hypothyroidism: 5 (15%) number of patients (%)
  Leukopenia: 6 (18%) number of patients (%)
  Lipase increased: 0 (0%) number of patients (%)
  Neutropenia: 1 (3%) number of patients (%)
  Thrombocytopenia: 4 (12%) number of patients (%)
  Dry skin: 6 (9%) number of patients (%)
  Others (Skin): 0 (0%) number of patients (%)
  Pruritus: 8 (24%) number of patients (%)
  Rash, acneiform: 0 (0%) number of patients (%)
  Rash, maculopapular: 6 (9%) number of patients (%)
  Rash, urticarial: 2 (6%) number of patients (%)
Grade 3
  Edema: 0 (0%) number of patients (%)
  Fatigue: 0 (0%) number of patients (%)
  Fever: 0 (0%) number of patients (%)
  Infusion-related reaction: 0 (0%) number of patients (%)
  Musculoskeletal pain: 0 (0%) number of patients (%)
  Others (Constitutional): 0 (0%) number of patients (%)
  Weight decreased: 0 (0%) number of patients (%)
  Constipation: 0 (0%) number of patients (%)
  Decreased appetite: 0 (0%) number of patients (%)
  Diarrhea: 0 (0%) number of patients (%)
  Gastritis/GI bleed: 0 (0%) number of patients (%)
  Nausea: 0 (0%) number of patients (%)
  Others (Gastrointestinal): 0 (0%) number of patients (%)
  Stomatitis: 0 (0%) number of patients (%)
  Vomiting: 0 (0%) number of patients (%)
  Adverse event, Lead to discontinuation: 1 (3%) number of patients (%)
  Any adverse event: 4 (12%) number of patients (%)
  ALT increased: 2 (6%) number of patients (%)
  AST increased: 1 (3%) number of patients (%)
  Abdominal pain: 0 (0%) number of patients (%)
  Bilirubin raised: 0 (0%) number of patients (%)
  GGT increased: 0 (0%) number of patients (%)
  Dermatitis: 2 (6%) number of patients (%)
  Hepatitis: 3 (9%) number of patients (%)
  Others immune-related: 0 (0%) number of patients (%)
  Amylase increased: 0 (0%) number of patients (%)
  Anemia: 0 (0%) number of patients (%)
  Hypercreatinine: 0 (0%) number of patients (%)
  Hyperglycemia: 0 (0%) number of patients (%)
  Hypokalemia: 0 (0%) number of patients (%)
  Hyponatremia: 0 (0%) number of patients (%)
  Hypothyroidism: 0 (0%) number of patients (%)
  Leukopenia: 0 (0%) number of patients (%)
  Lipase increased: 0 (0%) number of patients (%)
  Neutropenia: 0 (0%) number of patients (%)
  Thrombocytopenia: 0 (0%) number of patients (%)
  Dry skin: 0 (0%) number of patients (%)
  Others (Skin): 0 (0%) number of patients (%)
  Pruritus: 1 (3%) number of patients (%)
  Rash, acneiform: 0 (0%) number of patients (%)
  Rash, maculopapular: 1 (3%) number of patients (%)
  Rash, urticarial: 1 (3%) number of patients (%)
Grade 4
  Edema: 0 (0%) number of patients (%)
  Fatigue: 0 (0%) number of patients (%)
  Fever: 0 (0%) number of patients (%)
  Infusion-related reaction: 0 (0%) number of patients (%)
  Musculoskeletal pain: 0 (0%) number of patients (%)
  Others (Constitutional): 0 (0%) number of patients (%)
  Weight decreased: 0 (0%) number of patients (%)
  Constipation: 0 (0%) number of patients (%)
  Decreased appetite: 0 (0%) number of patients (%)
  Diarrhea: 0 (0%) number of patients (%)
  Gastritis/GI bleed: 0 (0%) number of patients (%)
  Nausea: 0 (0%) number of patients (%)
  Others (Gastrointestinal): 0 (0%) number of patients (%)
  Stomatitis: 0 (0%) number of patients (%)
  Vomiting: 0 (0%) number of patients (%)
  Adverse event, Lead to discontinuation: 1 (3%) number of patients (%)
  Any adverse event: 1 (3%) number of patients (%)
  ALT increased: 0 (0%) number of patients (%)
  AST increased: 1 (3%) number of patients (%)
  Abdominal pain: 0 (0%) number of patients (%)
  Bilirubin raised: 0 (0%) number of patients (%)
  GGT increased: 0 (0%) number of patients (%)
  Dermatitis: 0 (0%) number of patients (%)
  Hepatitis: 0 (0%) number of patients (%)
  Others immune-related: 0 (0%) number of patients (%)
  Amylase increased: 0 (0%) number of patients (%)
  Anemia: 0 (0%) number of patients (%)
  Hypercreatinine: 0 (0%) number of patients (%)
  Hyperglycemia: 0 (0%) number of patients (%)
  Hypokalemia: 0 (0%) number of patients (%)
  Hyponatremia: 0 (0%) number of patients (%)
  Hypothyroidism: 0 (0%) number of patients (%)
  Leukopenia: 0 (0%) number of patients (%)
  Lipase increased: 0 (0%) number of patients (%)
  Neutropenia: 0 (0%) number of patients (%)
  Thrombocytopenia: 0 (0%) number of patients (%)
  Dry skin: 0 (0%) number of patients (%)
  Others (Skin): 0 (0%) number of patients (%)
  Pruritus: 0 (0%) number of patients (%)
  Rash, acneiform: 0 (0%) number of patients (%)
  Rash, maculopapular: 0 (0%) number of patients (%)
  Rash, urticarial: 0 (0%) number of patients (%)
Grade 5
  Edema: 0 (0%) number of patients (%)
  Fatigue: 0 (0%) number of patients (%)
  Fever: 0 (0%) number of patients (%)
  Infusion-related reaction: 0 (0%) number of patients (%)
  Musculoskeletal pain: 0 (0%) number of patients (%)
  Others (Constitutional): 0 (0%) number of patients (%)
  Weight decreased: 0 (0%) number of patients (%)
  Constipation: 0 (0%) number of patients (%)
  Decreased appetite: 0 (0%) number of patients (%)
  Diarrhea: 0 (0%) number of patients (%)
  Gastritis/GI bleed: 0 (0%) number of patients (%)
  Nausea: 0 (0%) number of patients (%)
  Others (Gastrointestinal): 0 (0%) number of patients (%)
  Stomatitis: 0 (0%) number of patients (%)
  Vomiting: 0 (0%) number of patients (%)
  Adverse event, Lead to discontinuation: 0 (0%) number of patients (%)
  Any adverse event: 0 (0%) number of patients (%)
  ALT increased: 0 (0%) number of patients (%)
  AST increased: 0 (0%) number of patients (%)
  Abdominal pain: 0 (0%) number of patients (%)
  Bilirubin raised: 0 (0%) number of patients (%)
  GGT increased: 0 (0%) number of patients (%)
  Dermatitis: 0 (0%) number of patients (%)
  Hepatitis: 0 (0%) number of patients (%)
  Others immune-related: 0 (0%) number of patients (%)
  Amylase increased: 0 (0%) number of patients (%)
  Anemia: 0 (0%) number of patients (%)
  Hypercreatinine: 0 (0%) number of patients (%)
  Hyperglycemia: 0 (0%) number of patients (%)
  Hypokalemia: 0 (0%) number of patients (%)
  Hyponatremia: 0 (0%) number of patients (%)
  Hypothyroidism: 0 (0%) number of patients (%)
  Leukopenia: 0 (0%) number of patients (%)
  Lipase increased: 0 (0%) number of patients (%)
  Neutropenia: 0 (0%) number of patients (%)
  Thrombocytopenia: 0 (0%) number of patients (%)
  Dry skin: 0 (0%) number of patients (%)
  Others (Skin): 0 (0%) number of patients (%)
  Pruritus: 0 (0%) number of patients (%)
  Rash, acneiform: 0 (0%) number of patients (%)
  Rash, maculopapular: 0 (0%) number of patients (%)
  Rash, urticarial: 0 (0%) number of patients (%)
Grade 1-2, first listing
  Hypothyroidism: 0 (0%) number of patients (%)
Grade 3, first listing
  Hypothyroidism: 0 (0%) number of patients (%)
Grade 4, first listing
  Hypothyroidism: 0 (0%) number of patients (%)
Grade 5, first listing
  Hypothyroidism: 0 (0%) number of patients (%)
Avelumab 10 mg/kg every 2 weeks after TACE and SBRT
  Permanent discontinuation due to immune-related adverse events: two
Seven patients with interruption
  Median duration of dose interruption: 4 weeks

— patent US20250195917A1, “SEQUENTIAL TRANSARTERIAL CHEMOEMBOLIZATION, STEREOTACTIC BODY RADIOTHERAPY, AND IMMUNOTHERAPY (START-FIT) FOR HEPATOCELLULAR CARCINOMA” (The University of Hong Kong, priority 2023, published 2025)
